Read-outs that look alike come from different tables or passages of the source.
T1: human NGAL (C87S) produced in E. coli, NGAL(+)mut8 (human, UniProt P80188 21-198, 15N/2H or 13C/15N isotope label (NMR, Example 8); BHQ-10S quencher label (KD titrations, Example 9))
T1 construct: also called BHQ-NGAL; isotope-labeled human NGAL
T1 chain: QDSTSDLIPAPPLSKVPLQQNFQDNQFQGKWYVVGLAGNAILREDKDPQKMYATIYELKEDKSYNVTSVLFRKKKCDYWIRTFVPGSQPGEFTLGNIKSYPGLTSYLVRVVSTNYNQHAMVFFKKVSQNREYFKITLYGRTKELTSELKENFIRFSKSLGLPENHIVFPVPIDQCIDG

T2: NGAL rAg S112A displayed on yeast (human, UniProt P80188 21-198)
T2 construct: Yeast display AGA2 fusion as m5
T2 chain: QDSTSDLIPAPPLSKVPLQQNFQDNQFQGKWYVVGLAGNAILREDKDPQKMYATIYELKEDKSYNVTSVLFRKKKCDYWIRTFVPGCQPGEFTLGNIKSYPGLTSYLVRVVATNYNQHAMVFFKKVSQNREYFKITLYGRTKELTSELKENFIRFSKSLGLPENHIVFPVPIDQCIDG

T3: NGAL rAg A119G displayed on yeast (human, UniProt P80188 21-198)
T3 construct: Yeast display AGA2 fusion as m5
T3 chain: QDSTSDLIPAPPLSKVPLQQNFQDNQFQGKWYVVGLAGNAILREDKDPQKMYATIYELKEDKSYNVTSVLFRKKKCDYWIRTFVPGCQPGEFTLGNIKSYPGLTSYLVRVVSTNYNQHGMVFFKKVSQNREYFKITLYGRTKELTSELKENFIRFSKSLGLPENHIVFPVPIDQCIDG

T4: NGAL rAg Q117A displayed on yeast (human, UniProt P80188 21-198)
T4 construct: Yeast display AGA2 fusion as m5
T4 chain: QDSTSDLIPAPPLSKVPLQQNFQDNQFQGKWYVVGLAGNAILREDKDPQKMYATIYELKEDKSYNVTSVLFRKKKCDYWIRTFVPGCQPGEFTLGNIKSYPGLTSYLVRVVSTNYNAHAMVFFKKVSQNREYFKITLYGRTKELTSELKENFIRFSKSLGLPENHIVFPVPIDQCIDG

T5: NGAL rAg H118A displayed on yeast (human, UniProt P80188 21-198)
T5 construct: Yeast display AGA2 fusion as m5
T5 chain: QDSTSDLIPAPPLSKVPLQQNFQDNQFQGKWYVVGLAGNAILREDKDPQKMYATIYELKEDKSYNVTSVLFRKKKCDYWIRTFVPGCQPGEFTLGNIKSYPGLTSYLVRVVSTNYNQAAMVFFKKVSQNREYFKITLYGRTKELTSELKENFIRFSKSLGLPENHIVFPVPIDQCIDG

T6: NGAL rAg S158A displayed on yeast (human, UniProt P80188 21-198)
T6 construct: Yeast display AGA2 fusion as m5
T6 chain: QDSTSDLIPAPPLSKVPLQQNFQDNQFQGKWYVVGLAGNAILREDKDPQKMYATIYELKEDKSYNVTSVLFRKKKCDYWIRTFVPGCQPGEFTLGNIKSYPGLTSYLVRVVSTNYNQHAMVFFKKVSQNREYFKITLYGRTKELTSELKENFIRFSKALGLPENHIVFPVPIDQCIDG


Key:
[1] = target: T1, human NGAL (C87S) produced in E. coli, …; assay: fluorescence quenching titration: ALEXA 488-mAb with BHQ-NGAL in solution
Procedure: The equilibrium dissociation constants (KD) of NGAL and six anti-NGAL antibodies were measured in direct binding experiments. […] After 30 minutes incubation, all samples were measured on an SLM 8100 photon counting spectrofluorimeter. Samples were excited at 480 nm, and the emission was collected through a 530 nm (30 nm bandwidth) interference filter (Chroma Technology Corp., Rockingham, Vt.). All binding measurements were performed in 10 mM HEPES buffer, pH 7.4, containing 0.15 M NaCl, 3 mM EDTA, and 0.005% surfactant P20.
where Ligandₜₒₜₐₗ and ABSₜₒₜₐₗ are the BHQ-NGAL concentration and total antibody binding sites, respectively, and Fbound is the fraction of bound antibody sites. The binding data were fitted with a simple binding model to obtain the equilibrium dissociation constant (KD) according to equation [4]: […]

[2] = target: T7, wild-type NGAL antigen displayed on yeast (AGA2 fusion) (human, UniProt P80188 21-198); assay: flow cytometry titration of the mAb on yeast displaying the NGAL antigen, detection with GaM-PE, fractional binding
T7 construct: also called WT

[3] = target: T2, NGAL rAg S112A displayed on yeast; assay: as above
[4] = target: T3, NGAL rAg A119G displayed on yeast; assay: as above
[5] = target: T4, NGAL rAg Q117A displayed on yeast; assay: as above
[6] = target: T5, NGAL rAg H118A displayed on yeast; assay: as above
[7] = target: T1, human NGAL (C87S) produced in E. coli, …; assay: DC-FCCS sandwich formation in solution; second antibody mAb 809
Procedure: Samples were placed in a 96-microwell optical bottom plate (Nalge Nunc International, Rochester, N.Y.). The excitation wavelength was set at 810 nm, 3 mW on the sample. Sampling rate was set at 200 KHz and 10 million points were collected for each measurement. Each sample was measured twice. Experiments were performed on each sample after one-hour incubation.
Labeled antibodies were mixed at equal concentration (40 μL of 10 nM mAbs) and ligand (15 nM NGAL) was added to the solution. Cross-correlation curves before and after adding NGAL were calculated from the data sets acquired in each channel and the data were normalized.
For illustration purposes, a relative number was assigned to each antibody pair, which, in fact, is the ratio of Gx(0) values before and after the addition of NGAL to the antibodies (Table 13). All ratio values were corrected for the background. A value of “1” indicates no sandwich formation, values between 1.1 and 2.5 indicate a poor sandwich formation, and all values above 2.6 indicate productive antibody pairing.

[8] = target: T6, NGAL rAg S158A displayed on yeast; assay: flow cytometry titration of the mAb on yeast displaying the NGAL antigen, detection with GaM-PE, fractional binding
[9] = target: T7, wild-type NGAL antigen displayed on …; assay: as above; remark: listed apart in the source

Kd [1] | EC50 (read off the curve) [2] | EC50 (read off the curve) [3] | EC50 (read off the curve) [4] | EC50 (read off the curve) [5] | EC50 (read off the curve) [6] | ratio of Gx(0) before and after adding NGAL [7] | EC50 (read off the curve) [8] | EC50 (read off the curve) [9] | Binder
60 pM | ~6 pM | ~100 pM | ~7 pM | ~30 pM | ~200 pM | 1.5 |  |  | anti-NGAL monoclonal antibody 1-2322-455 (antibody, V domains shown) VH: EVQLVESGGGLVQPGGSLKLSCAASGFTFNNYYMSWVRQTPERRLEWVAYISSSGGSTYYSDSVRGRFTISRDTARNTLYLQMTSLKSEDTAMYYCARHFGDYSYFDYWGQGTTLTVSS VL: DIQMTQSPASLSASVGETVTITCRASENFYSYLAWYQQKQGKSPQLLVYNAKTLAEGVPSRFSGSGSGTQFSLKINSLQPEDFGTYYCQHHYDIPLTFGAGTKLELKR
1200 pM |  |  |  |  |  | 3 | ~200 pM | ~200 pM | anti-NGAL monoclonal antibody 1-903-430 (antibody, V domains shown) VH: KIQLVQSGPELKKPGETVKISCKASGYTFTNYGMNWVKQAPGKGLKWMGWININTGEPTYAEEFKGRFAFSLETSATTAFLQINNLKNEDTATYLCARDSYSGGFDYWGQGTIVTVSS VL: DIVMTQSPSSLSVSAGEKVTLSCKSSQSLLISGDQKNYLAWYQQKPGQPPKLLIYGASTRDSGVPDRFTGSGSGADFTLTISSVQAEDLAVYYCQNDHSFPPTFGAGTKLELKR

Source: US20090263894A1 (AbbVie / Abbott, published 2009)
